Numbering of substitutions follows the chain as printed. In names and notes the source's numbering stands.
B1: SmLcar (Sinorhizobium meliloti) (protein)
chain: MAAPGENRRVNADRLWDSLMEMAKIGPGVAGGNNRQTLTDADGEGRRLFQSWCEEAGLSMGVDKMGTMFLTRPGTDPDALPVHIGSHLDTQPTGGKFDGVLGVLSGLEAVRTMNDLGIKTKHPIVVTNWTNEEGARFAPAMLASGVFAGVHTLEYAYARKDPEGKSFGDELKRIGWLGDEEVGARKMHAYFEYHIEQGPILEAENKQIGVVTHCQGLWWLEFTLTGREAHTGSTPMDMRVNAGLAMARILEMVQTVAMENQPGAVGGVGQMFFSPNSRNVLPGKVVFTVDIRSPDQAKLDGMRARIEAEAPKICERLGVGCSIEAVGHFDPVTFDPKLVETVRGAAEKLGYSHMNLVSGAGHDACWAAKVAPTTMIMCPCVGGLSHNEAEDISREWAAAGADVLFHAVLETAEIVE
notes: recombinant, produced from plasmid and purified; bivalent metal-dependent
B2: SmLcar (Sinorhizobium meliloti; L217G) (protein)
chain: B1 chain with L217G
notes: as for B1
B3: SmLcar (Sinorhizobium meliloti; F329Y/L217G) (protein)
chain: B1 chain with L217G, F329Y
notes: as for B1
B4: SmLcar (Sinorhizobium meliloti; F329C/L217G) (protein)
chain: B1 chain with L217G, F329C
notes: as for B1

Experiments:
Format in all cases: biochemical, Sinorhizobium meliloti
Conditions in all cases: free enzyme; kinetic pH and metal not given
[1] = substrate: NC(=O)N[C@@H](Cc1ccc(O)c(I)c1)C(=O)O; assay: saturation kinetics, Michaelis-Menten fit
Text: (§1) saturation kinetics, Michaelis-Menten fit on […]

[2] = substrate: NC(=O)N[C@@H](Cc1ccc(O)c([N+](=O)[O-])c1)C(=O)O; assay: HPLC saturation kinetics, Michaelis-Menten fit
Text: HPLC saturation kinetics, Michaelis-Menten fit on […]

[3] = substrate: NC(=O)N[C@@H](Cc1ccc(O)c([N+](=O)[O-])c1)C(=O)O; assay: saturation kinetics, Michaelis-Menten fit
Text: as §1

Row | Protein | Km [1] | kcat [1] [s⁻¹] | kcat/Km [1] [M⁻¹ s⁻¹] | Km [2] | kcat [2] [s⁻¹] | kcat/Km [2] [M⁻¹ s⁻¹] | Km [3] | kcat [3] [s⁻¹] | kcat/Km [3] [M⁻¹ s⁻¹]
1 | B1 | 13.8 (7.91) mM | 6.92e-05 ± 2.09e-05 | 0.005 ± 0.00315 | 2.98 (0.87) mM | 0.000105 ± 1.01e-05 | 0.0354 ± 0.00977 | – | – | –
2 | B2 | 2.58 (0.46) mM | 0.232 | 89.9 | – | – | – | 8.91 (2.81) mM | 0.0929 ± 0.0136 | 10.4
3 | B3 | 1.45 (0.16) mM | 0.231 | 159 | – | – | – | 5.30 (0.88) mM | 0.78 | 148
4 | B4 | 5.71 (1.14) mM | 4.84 | 849 | – | – | – | 2.92 (0.95) mM | 0.32 | 108
